# Experimental data as given in US20170362324A1 (Biogen, published 2017).
# Read-outs that look alike come from different tables or passages of the source.
# Experiments:
# [1] = biological target: T1, human αvβ5 expressed on BaF3 cells (stably transfected with human αv and β5 subunits) (human, UniProt P06756 31-1048; P18084 24-799); assay: FACS on αvβ5-BaF3 cells, unpurified antibody
# T1 construct: also called αvβ5-BaF3; BaF3-hu αvβ5
# Experimental: FACS Binding Assay: Cells were washed one time in PBS, and then resuspended in FACS buffer (1×PBS, 1% BSA, 1 mM CaCl₂, and 1 mM MgCl₂). 1×10⁶ cells were then incubated on ice for 1 hr in FACS buffer containing the test antibody in a total volume of 50 μl. After incubation, the cells were washed two times with ice cold FACS buffer, resuspended in 50 μl of FACS buffer containing 3 μg/ml goat anti-mouse IgG AlexaFluor488 (Jackson ImmunoResearch), and incubated on ice for 30 min. The cells were then washed twice with ice cold FACS buffer and fixed in 1% PFA overnight. Cell aggregates were removed by filtering through 40 μm filter plates (Millipore) and binding of the labeled secondary antibody was monitored by flow cytometry using a FACS Calibur (BD Biosciences).
# (§1) Screening of all combinations of heavy chain versions VH0, VH1, VH2, VH3, VH4, or VH5, with light chains VL0, VL1, VL2, or VL3 was carried out using unpurified proteins in conditioned cell media. The binding of each construct to biotin-conjugated human αvβ5 protein was determined using a solid-phase binding assay (ELISA) and by FACS, and the ability of each construct to block ligand binding was determined using a vitronectin cell adhesion assay (Table 1).
# [2] = biological target: T2, human soluble αvβ5 protein (extracellular domains of human αv and β5 integrin subunits) (human, UniProt P06756 31-992; P18084 24-719); assay: competition ELISA against 1 nM murine ALULA on coated soluble human αvβ5
# T2 construct: also called biotin-αvβ5; hsαvβ5
# T2 sequence (P06756 31-992 limits assumed, chain 1 of 2): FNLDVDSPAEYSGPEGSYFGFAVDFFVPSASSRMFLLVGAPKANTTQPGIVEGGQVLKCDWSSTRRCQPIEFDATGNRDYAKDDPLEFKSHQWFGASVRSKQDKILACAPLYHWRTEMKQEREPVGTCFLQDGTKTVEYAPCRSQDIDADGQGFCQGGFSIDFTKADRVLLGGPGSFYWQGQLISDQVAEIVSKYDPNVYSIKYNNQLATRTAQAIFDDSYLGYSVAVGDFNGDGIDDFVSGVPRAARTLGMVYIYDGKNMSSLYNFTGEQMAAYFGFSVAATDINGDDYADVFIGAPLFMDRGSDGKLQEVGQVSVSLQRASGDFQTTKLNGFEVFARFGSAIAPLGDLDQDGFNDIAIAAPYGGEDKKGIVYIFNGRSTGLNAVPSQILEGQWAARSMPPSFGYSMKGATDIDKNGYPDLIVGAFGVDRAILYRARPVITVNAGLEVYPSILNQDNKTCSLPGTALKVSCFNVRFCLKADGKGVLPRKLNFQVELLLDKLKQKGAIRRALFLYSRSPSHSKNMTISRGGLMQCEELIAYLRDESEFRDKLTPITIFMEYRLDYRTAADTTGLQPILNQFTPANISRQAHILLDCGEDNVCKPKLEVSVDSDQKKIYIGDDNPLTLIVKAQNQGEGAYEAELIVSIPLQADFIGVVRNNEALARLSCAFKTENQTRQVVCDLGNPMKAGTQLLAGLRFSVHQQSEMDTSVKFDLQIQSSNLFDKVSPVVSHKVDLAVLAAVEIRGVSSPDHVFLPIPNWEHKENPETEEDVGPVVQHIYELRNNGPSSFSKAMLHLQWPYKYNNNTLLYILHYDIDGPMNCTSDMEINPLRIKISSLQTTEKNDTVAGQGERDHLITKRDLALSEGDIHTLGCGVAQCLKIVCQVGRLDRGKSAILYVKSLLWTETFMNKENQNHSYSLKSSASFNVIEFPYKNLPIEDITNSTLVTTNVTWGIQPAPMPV
# T2 sequence (P18084 24-719 limits assumed, chain 2 of 2): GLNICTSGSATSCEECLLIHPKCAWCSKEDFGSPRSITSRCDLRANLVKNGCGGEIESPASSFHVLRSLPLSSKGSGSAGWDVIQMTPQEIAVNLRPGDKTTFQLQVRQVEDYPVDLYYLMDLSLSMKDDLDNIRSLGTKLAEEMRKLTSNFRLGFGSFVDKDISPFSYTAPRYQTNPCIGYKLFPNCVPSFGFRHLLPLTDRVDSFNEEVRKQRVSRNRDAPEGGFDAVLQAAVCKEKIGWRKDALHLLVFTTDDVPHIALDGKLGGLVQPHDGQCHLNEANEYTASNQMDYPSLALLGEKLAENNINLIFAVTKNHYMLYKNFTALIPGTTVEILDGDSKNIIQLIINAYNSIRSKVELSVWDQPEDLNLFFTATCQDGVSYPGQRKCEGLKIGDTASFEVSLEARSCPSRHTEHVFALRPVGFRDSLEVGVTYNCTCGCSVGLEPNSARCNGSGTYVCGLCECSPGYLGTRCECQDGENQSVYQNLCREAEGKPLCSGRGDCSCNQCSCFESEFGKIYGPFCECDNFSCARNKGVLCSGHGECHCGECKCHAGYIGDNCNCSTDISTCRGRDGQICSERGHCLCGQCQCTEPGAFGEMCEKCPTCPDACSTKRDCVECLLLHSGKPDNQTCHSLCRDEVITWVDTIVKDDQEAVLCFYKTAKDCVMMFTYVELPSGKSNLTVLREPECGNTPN
# Experimental: Competition ELISA: A 96-well microtiter plate was coated with 50 μl/well of 5 μg/mL soluble human αvβ5 protein at 4° C. overnight. The plate was washed with wash buffer (0.05% Tween-20 in PBS) four times in an automated plate washer. 300 μl/well of 1% BSA in PBS was added and incubated for 1 hr at 25° C. to block nonspecific binding. The plate was washed as above, and dilutions of humanized antibodies mixed with 1 nM murine ALULA in PBS containing 1% BSA, were added (50 μl/well). The plate was incubated for 1 hr at 25° C., washed, and then incubated for 40 minutes with 100 μl/well of […] goat anti-mouse antibody. Bound antibody was detected using 3,3′,5,5′-tetramethylbenzidine (TMB). Binding was indicated by the absorbency measured at 450 nm.
# The binding of each construct to soluble, purified human αvβ5 protein was determined by a competition ELISA with murine ALULA (FIG. 4). […] The remaining constructs behaved similarly, with version H4/L2 showing the lowest IC50 value in this assay.
# [3] = biological target: T1, human αvβ5 expressed on BaF3 cells …; assay: cell-based or functional assay
# [4] = biological target: T2, human soluble αvβ5 protein …; assay: ELISA, inhibition of soluble αvβ5 binding to coated human plasma vitronectin
# Experimental: Vitronectin Inhibition ELISA: 96-well microtiter plates were coated with 5 μg/ml purified human plasma vitronectin diluted in PBS (50 μl/well) at 4° C. overnight. After the coating solution was removed, the plates were blocked with 300 μl/well of 1% BSA/TBS at 25° C. for 1 hr. The plate was washed with wash buffer (0.05% Tween-20 in TBS containing 1 mM CaCl₂ and 1 mM MgCl₂), and dilutions of humanized antibodies mixed with 1 nM soluble αvβ5 protein in TBS containing 1% BSA, 1 mM CaCl₂ and 1 mM MgCl₂ were added (50 μl/well) and incubated at 25° C. for 1 hr. The plate was washed 4 times with wash buffer in an automated plate washer and incubated sequentially with 50 μl/well of the anti-beta5 monoclonal antibody 15F11 (at 0.5 ug/mL) in for 1 hr at 25° C. in TBS containing 1% BSA, 1 mM CaCl₂ and 1 mM MgCl₂. After washing the plate 4 times with wash buffer, 100 μl/well of a 1:5000 dilution of a peroxidase-conjugated goat anti-mouse antibody in TBS containing 1% BSA, 1 mM CaCl₂ and 1 mM MgCl₂ were added and incubated for 1 hr at 25° C. Bound protein was detected using the TMB substrate and indicated by the absorbency measured at 450 nm.
# In parallel, the humanized ALULA antibodies were tested in two adhesion assays. One measured the ability of each antibody to inhibit the binding of soluble αvβ5 to purified human plasma vitronectin. In the other assay, the murine BaF3 cell line was stably transfected with human αv and β5 subunits, and the adhesion of these cells to vitronectin was determined using a fluorescence endpoint.
# [5] = biological target: T2, human soluble αvβ5 protein …; assay: ELISA, biotin-αvβ5 on streptavidin plate, unpurified antibody
# Experimental: Solid-Phase αvβ5 Binding Assay (ELISA): A 96-well microtiter plate was precoated with streptavidin (Thermo Scientific Reacti-Bind StreptAvidin Coated High Binding Capacity plate) was used. Biotinylated soluble αvβ5 protein (2 μg/mL) in TBS with 1% BSA was added to the wells, and the plate was incubated for 1 hr at 25° C. The plate was washed with wash buffer (0.05% Tween-20 in PBS), and purified humanized ALULA antibody in TBS containing 1% BSA, 1 mM CaCl2, and 1 mM MgCl2 were added (50 μl/well). The plate was incubated for 1 hr at 25° C., washed, and then incubated for 1 hr with 50 μl/well of […] goat anti-human secondary antibody. Bound antibody was detected using 3,3′,5,5′-tetramethylbenzidine (TMB). Binding was indicated by the absorbency measured at 450 nm.
# as §1
# [6] = biological target: T1, human αvβ5 expressed on BaF3 cells …; assay: cell-based or functional assay; remark: listed apart in the source
# T1 sequence (P06756 31-1048 limits assumed, chain 1 of 2): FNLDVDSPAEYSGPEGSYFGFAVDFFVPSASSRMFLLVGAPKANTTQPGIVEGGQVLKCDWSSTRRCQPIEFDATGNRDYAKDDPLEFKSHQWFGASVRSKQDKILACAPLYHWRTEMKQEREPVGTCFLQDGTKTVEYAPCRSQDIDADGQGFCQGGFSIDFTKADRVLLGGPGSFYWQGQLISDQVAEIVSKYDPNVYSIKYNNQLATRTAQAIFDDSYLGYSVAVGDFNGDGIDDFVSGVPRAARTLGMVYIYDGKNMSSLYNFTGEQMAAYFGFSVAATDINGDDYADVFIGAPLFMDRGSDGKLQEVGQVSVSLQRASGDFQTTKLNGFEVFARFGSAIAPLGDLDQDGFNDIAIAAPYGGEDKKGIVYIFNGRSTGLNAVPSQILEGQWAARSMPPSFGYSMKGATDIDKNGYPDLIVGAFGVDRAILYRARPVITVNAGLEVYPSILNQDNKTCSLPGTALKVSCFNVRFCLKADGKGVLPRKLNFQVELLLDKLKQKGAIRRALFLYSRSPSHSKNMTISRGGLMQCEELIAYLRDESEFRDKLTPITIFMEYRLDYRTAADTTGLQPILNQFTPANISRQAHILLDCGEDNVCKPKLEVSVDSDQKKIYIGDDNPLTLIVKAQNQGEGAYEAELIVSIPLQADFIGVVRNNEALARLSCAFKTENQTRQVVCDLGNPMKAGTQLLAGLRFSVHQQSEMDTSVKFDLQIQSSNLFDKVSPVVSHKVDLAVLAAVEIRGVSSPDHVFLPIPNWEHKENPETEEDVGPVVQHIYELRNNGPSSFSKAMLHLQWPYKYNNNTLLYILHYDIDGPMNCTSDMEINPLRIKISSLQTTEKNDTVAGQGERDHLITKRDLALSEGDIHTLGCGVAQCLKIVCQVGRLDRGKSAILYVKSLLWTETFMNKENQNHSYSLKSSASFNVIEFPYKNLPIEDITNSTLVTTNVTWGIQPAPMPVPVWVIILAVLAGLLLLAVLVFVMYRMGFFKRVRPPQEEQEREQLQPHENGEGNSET
# T1 sequence (P18084 24-799 limits assumed, chain 2 of 2): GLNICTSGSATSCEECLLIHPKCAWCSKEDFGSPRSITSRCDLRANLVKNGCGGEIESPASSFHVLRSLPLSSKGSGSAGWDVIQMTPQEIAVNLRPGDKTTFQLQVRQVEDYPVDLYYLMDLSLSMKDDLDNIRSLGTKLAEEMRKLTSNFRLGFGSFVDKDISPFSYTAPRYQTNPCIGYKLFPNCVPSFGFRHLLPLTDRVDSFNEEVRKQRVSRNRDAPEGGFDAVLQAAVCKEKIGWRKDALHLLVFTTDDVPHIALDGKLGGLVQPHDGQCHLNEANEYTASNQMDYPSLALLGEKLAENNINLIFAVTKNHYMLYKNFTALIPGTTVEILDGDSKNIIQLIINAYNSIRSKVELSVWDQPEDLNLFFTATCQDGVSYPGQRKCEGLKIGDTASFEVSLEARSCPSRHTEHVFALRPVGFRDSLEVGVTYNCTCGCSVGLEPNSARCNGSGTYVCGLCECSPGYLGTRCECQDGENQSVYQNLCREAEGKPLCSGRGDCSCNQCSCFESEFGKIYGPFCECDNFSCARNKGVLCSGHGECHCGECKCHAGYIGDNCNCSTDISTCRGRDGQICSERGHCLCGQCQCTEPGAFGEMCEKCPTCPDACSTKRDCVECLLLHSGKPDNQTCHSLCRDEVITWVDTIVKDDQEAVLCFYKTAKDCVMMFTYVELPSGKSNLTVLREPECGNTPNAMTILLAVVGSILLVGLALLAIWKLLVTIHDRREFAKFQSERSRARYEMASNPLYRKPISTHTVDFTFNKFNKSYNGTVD
Binder,EC50 [1],IC50 [2],"VN adhesion inhibition, αvβ5-BaF3 (IC50, nM) [3]",IC50 [4],EC50 [5],"VN adhesion inhibition, αvβ5-BaF3 (IC50, nM) [6]"
"VH0/VL0 Agly-hIgG1(T299A) (antibody, V domains shown, also called H0/L0) VH: EVQLVESGGGLVKPGGSLRLSCAASGYTFTSYWMHWVRQAPGKGLEWVGAIYPGNSDTSYNQKFKGRFTISRDDSKNTLYLQMNSLKTEDTAVYYCTTTTYGYDWFAYWGQGTLVTVSS VL: DIQMTQSPSSVSASVGDRVTITCKSSQSVLYSSNQKNYLAWYQQKPGKAPKLLIYWASTRESGVPSRFSGSGSGTDFTLTISSLQPEDFATYYCHQYLSSLTFGQGTKVEIK",1120 nM,18.3 nM,3 nM,11.1 nM,1.2 nM,1770 nM
"VH4/VL1 Agly-hIgG1(T299A) (antibody, V domains shown, also called H4/L1) VH: EVQVVQSGGGLVKPGESLRLSCKASGYTFTSYWMHWVKQAPGKGLEWVGAIYPGNSDTSYNQKFKGKFTISADTSPNTAYLQMNSLKTEDTAVYYCTTTTYGYDWFAYWGQGTLVTVSS VL: DIQMTQSPSSLSASVGDRVTMTCKSSQSVLYSSNQKNYLAWYQQKPGKAPKLLIYWASTRESGVPDRFSGSGSGTDFTLTISSLQPEDFATYYCHQYLSSLTFGQGTKLEIK",126 nM,2.2 nM,1 nM,0.9 nM,0.4 nM,59.8 nM
"VH5/VL0 Agly-hIgG1(T299A) (antibody, V domains shown, also called H5/L0) VH: EVQVQQSGGGLVKPGGSLRLSCKASGYTFTSYWMHWVKQAPGKGLEWVGAIYPGNSDTSYNQKFKGKATLSAVTSPNTAYLQMNSLKTEDTAVYYCTTTTYGYDWFAYWGQGTLVTVSS VL: DIQMTQSPSSVSASVGDRVTITCKSSQSVLYSSNQKNYLAWYQQKPGKAPKLLIYWASTRESGVPSRFSGSGSGTDFTLTISSLQPEDFATYYCHQYLSSLTFGQGTKVEIK",244 nM,2.8 nM,1 nM,3.1 nM,0.4 nM,218 nM
"VH4/VL0 Agly-hIgG1(T299A) (antibody, V domains shown, also called H4/L0 (Agly-IgG1)) VH: EVQVVQSGGGLVKPGESLRLSCKASGYTFTSYWMHWVKQAPGKGLEWVGAIYPGNSDTSYNQKFKGKFTISADTSPNTAYLQMNSLKTEDTAVYYCTTTTYGYDWFAYWGQGTLVTVSS VL: DIQMTQSPSSVSASVGDRVTITCKSSQSVLYSSNQKNYLAWYQQKPGKAPKLLIYWASTRESGVPSRFSGSGSGTDFTLTISSLQPEDFATYYCHQYLSSLTFGQGTKVEIK",158 nM,2 nM,1.1 nM,1.7 nM,0.3 nM,74.9 nM
"VH4/VL2 Agly-hIgG1(T299A) (antibody, V domains shown, also called H4/L2 (Agly-IgG1)) VH: EVQVVQSGGGLVKPGESLRLSCKASGYTFTSYWMHWVKQAPGKGLEWVGAIYPGNSDTSYNQKFKGKFTISADTSPNTAYLQMNSLKTEDTAVYYCTTTTYGYDWFAYWGQGTLVTVSS VL: NIQMTQSPSSLSASVGDRVTMSCKSSQSVLYSSNQKNYLAWYQQKPGKSPKLLIYWASTRESGVPDRFTGSGSGTDFTLTISSLQPEDFATYYCHQYLSSLTFGQGTKLEIK",156 nM,1.6 nM,0.5 nM,0.6 nM,0.4 nM,71.8 nM
"VH0/VL1 Agly-hIgG1(T299A) (antibody, V domains shown, also called H0/L1) VH: EVQLVESGGGLVKPGGSLRLSCAASGYTFTSYWMHWVRQAPGKGLEWVGAIYPGNSDTSYNQKFKGRFTISRDDSKNTLYLQMNSLKTEDTAVYYCTTTTYGYDWFAYWGQGTLVTVSS VL: DIQMTQSPSSLSASVGDRVTMTCKSSQSVLYSSNQKNYLAWYQQKPGKAPKLLIYWASTRESGVPDRFSGSGSGTDFTLTISSLQPEDFATYYCHQYLSSLTFGQGTKLEIK",798 nM,14.2 nM,2.2 nM,11.9 nM,1.3 nM,1620 nM
"VH2/VL2 Agly-hIgG1(T299A) (antibody, V domains shown, also called H2/L2 (Agly-IgG1)) VH: EVQVVQSGGGLVKPGESLRLSCAASGYTFTSYWMHWVKQAPGKGLEWVGAIYPGNSDTSYNQKFKGKFTISADTSSNTAYLQMNSLKTEDTAVYYCTTTTYGYDWFAYWGQGTLVTVSS VL: NIQMTQSPSSLSASVGDRVTMSCKSSQSVLYSSNQKNYLAWYQQKPGKSPKLLIYWASTRESGVPDRFTGSGSGTDFTLTISSLQPEDFATYYCHQYLSSLTFGQGTKLEIK",646 nM,2.8 nM,0.4 nM,1.1 nM,0.7 nM,292 nM
"VH3/VL2 Agly-hIgG1(T299A) (antibody, V domains shown, also called H3/L2) VH: EVQVVESGGGLVKPGGSLRLSCKASGYTFTSYWMHWVKQAPGKGLEWVGAIYPGNSDTSYNQKFKGKFTLSAVTSSNTAYLQMNSLKTEDTAVYYCTTTTYGYDWFAYWGQGTLVTVSS VL: NIQMTQSPSSLSASVGDRVTMSCKSSQSVLYSSNQKNYLAWYQQKPGKSPKLLIYWASTRESGVPDRFTGSGSGTDFTLTISSLQPEDFATYYCHQYLSSLTFGQGTKLEIK",3310 nM,3.3 nM,0.6 nM,2.5 nM,0.7 nM,124 nM
"VH2/VL0 Agly-hIgG1(T299A) (antibody, V domains shown, also called H2/L0) VH: EVQVVQSGGGLVKPGESLRLSCAASGYTFTSYWMHWVKQAPGKGLEWVGAIYPGNSDTSYNQKFKGKFTISADTSSNTAYLQMNSLKTEDTAVYYCTTTTYGYDWFAYWGQGTLVTVSS VL: DIQMTQSPSSVSASVGDRVTITCKSSQSVLYSSNQKNYLAWYQQKPGKAPKLLIYWASTRESGVPSRFSGSGSGTDFTLTISSLQPEDFATYYCHQYLSSLTFGQGTKVEIK",354 nM,3.4 nM,1.3 nM,2.4 nM,0.5 nM,476 nM
